Tests used:
[1] = in vivo; parameters: species or system BALB/c (nu/nu) nude mice; settings: BALB/c (nu/nu) nude, mouse, iv, total radioactivity
Protocol: (§1) When tumour volumes reached ~120 mm^3, animals were divided into five groups with seven animals in each group for both H69 and CA20948 tumour-bearing animals. […] At 10, 30, 60 and 120 min post injection (p.i.), animals in the four groups were euthanized and tissues and organs of interest (including tumour, kidney, pancreas, spleen, liver, muscle, blood, femur, femur marrow and adrenals) were collected and counted using a gamma counter (Wallac Wizard 3, PerkinElmer, USA). […] The animals of the control group were euthanized 60 min p.i.; tissues and organs of interest were harvested and counted using a gamma counter. Data was expressed in mean percentage of total injected radioactivity per gram tissue (%IA/g) ± SD.

[2] = test system: CA20948 tumour-bearing mice; test: in vivo; parameters: species or system BALB/c (nu/nu) nude mice; settings: mouse, iv
Protocol: as §1

[3] = test system: H69 tumour-bearing mice; test: in vivo; parameters: species or system BALB/c (nu/nu) nude mice; settings: mouse, iv
Protocol: as §1

[4] = test system: CA20948 (rat pancreatic tumour) tumours; test: Targeted alpha therapy: tumour growth and survival, CA20948 tumours; assay type: in vivo, rat tumour cells in BALB/c (nu/nu) nude mice; settings: for Mean time to reach a tumour volume of 2000 mm^3: i.v. 2–4 MBq/0.3 nmol ^213Bi-DOTATATE or 0.3 nmol unlabelled DOTATATE (control) on three consecutive days, mean ± SD; for Median survival: follow-up 90 days after treatment
Protocol: (§2) All animal studies were in agreement with the Animal Welfare Committee requirements of Erasmus MC and conducted in accordance with accepted guidelines. Male 6–8-week-old BALB/c (nu/nu) nude mice were obtained from Charles River (Kißlegg, Germany). Subcutaneous tumours were established in mice by inoculation of approximately 5 × 10^6 cells (CA20948 or H69), suspended in 200 μL sterile culture medium Hanks’ balanced salt solution (HBSS) in the case of CA20948 cells. Three days after inoculation of CA20948 cells, a tumour with a tumour size ~50 mm^3 (used for the “smaller” tumour-size group) was reached, and 2 weeks after inoculation, a tumour size ~200 mm^3 (used for the “larger” tumour-size group) was reached. For H69 cells, 200 μL, containing 1/3 Matrigel and 2/3 HBSS medium (Gibco, Life Technologies), was used. The cells were injected subcutaneously (s.c.) into the right flank of the mice. One week after inoculation of tumour cells, tumours with a volume of ~50 mm^3 (used for the smaller tumour-size group) could be detected, and after 3 weeks, tumour volumes reached ~200 mm^3 (used for the larger tumour-size group). Tumour volumes were estimated using a calliper.
(§3) Tumour cells were inoculated into the right flank of the mice, and the tumours were allowed to grow until tumour volumes of approximately 50 and 200 mm^3 were reached, respectively. […] The control group (H69-bearing animals: small tumour n = 10, large tumour n = 9; CA20948-bearing animals: small tumour n = 5, large tumour n = 5) received i.v. via the tail vein three times 0.3 nmol/200 μL of unlabelled DOTATATE for three consecutive days.
(§4) All animals were followed for 90 days after treatment. The behaviour and the health status of the animals were observed daily, and the weight of the animals and the tumour volumes were monitored twice a week.

[5] = in the absence of L-lysine; ref manuscript in preparation; cited from earlier work
Excerpt: In patients, the maximum tolerated dose in kidney is postulated to b ...

[6] = test system: kidney; settings: mouse, in vivo
[7] = test system: H69 (human small cell lung carcinoma) tumours; test: Targeted alpha therapy: tumour growth and survival, H69 tumours; assay type: in vivo, human tumour cells in BALB/c (nu/nu) nude mice; settings: for Mean time to reach a tumour volume of 2000 mm^3: i.v. 2–4 MBq/0.3 nmol ^213Bi-DOTATATE or 0.3 nmol unlabelled DOTATATE (control) on three consecutive days, mean ± SD; for Median survival: follow-up 90 days after treatment
Protocol: as §2, §3, §4

[8] = 3.8 MBq/0.3 nmol/200 uL, Uptake, Adrenal
[9] = 3.8 MBq/0.3 nmol/200 uL, Uptake, Blood
[10] = 3.8 MBq/0.3 nmol/200 uL, Uptake, Femur
[11] = 3.8 MBq/0.3 nmol/200 uL, Uptake, Kidney
[12] = 3.8 MBq/0.3 nmol/200 uL, Uptake, Liver
[13] = 3.8 MBq/0.3 nmol/200 uL, Uptake, Muscle
[14] = 3.8 MBq/0.3 nmol/200 uL, Uptake, Tumour
[15] = H69 small tumours, after treatment

With `C[C@@H](O)[C@H](NC(=O)[C@@H]1CSSC[C@H](NC(=O)[C@@H](Cc2ccccc2)NC(=O)CN2CCN(CC(=O)O)CCN(CC(=O)O)CCN(CC(=O)O)CC2)C(=O)N[C@@H](Cc2ccc(O)cc2)C(=O)N[C@H](Cc2c[nH]c3ccccc23)C(=O)N[C@@H](CCCCN)C(=O)N[C@@H]([C@@H](C)O)C(=O)N1)C(=O)O` [^213Bi-DOTATATE, ^213Bi-[DOTA^0, Tyr^3]-octreotate, metal not drawn] the tissue uptake at 10 min ([1]; 2.1 MBq/0.3 nmol/200 uL, Uptake, Kidney) was 51.5 ± 16.6 %ID/g, the tissue uptake at 2 h ([1]; 2.1 MBq/0.3 nmol/200 uL, Uptakes in other organs (other than tumour and kidney)) was < 2 %ID/g and the tissue uptake at 2 h ([1]; 3.8 MBq/0.3 nmol/200 uL, Uptake in all other organs (other than tumour and kidney)) was < 2 %ID/g. The tissue uptake at 0.5 h [1, 8] was 2 ± 0.6 %ID/g, the tissue uptake at 1 h [1, 8] was 0.9 ± 0.4 %ID/g and the tissue uptake at 2 h [1, 8] was 0.7 ± 0.4 %ID/g. It also gave a tissue uptake at 10 min [1, 9] of 8.1 ± 1.8 %ID/g, a tissue uptake at 0.5 h [1, 9] of 2.3 ± 1.1 %ID/g and a tissue uptake at 1 h [1, 9] of 0.6 ± 0.2 %ID/g. It also gave a tissue uptake at 2 h [1, 9] of 0.1 ± 0.06 %ID/g, a tissue uptake at 0.5 h [1, 10] of 1.5 ± 0.4 %ID/g and a tissue uptake at 1 h [1, 10] of 1 ± 0.5 %ID/g. For the same compound, the tissue uptake at 2 h [1, 10] was 0.4 ± 0.4 %ID/g, the tissue uptake at 10 min [1, 11] was 44 ± 9.6 %ID/g and the tissue uptake at 0.5 h [1, 11] was 28.5 ± 3.7 %ID/g. It also gave a tissue uptake at 1 h [1, 11] of 26.2 ± 2.6 %ID/g, a tissue uptake at 2 h [1, 11] of 25 ± 3.8 %ID/g and a tissue uptake at 0.5 h [1, 12] of 0.9 ± 0.09 %ID/g. It also gave a tissue uptake at 1 h [1, 12] of 0.4 ± 0.06 %ID/g, a tissue uptake at 2 h [1, 12] of 0.3 ± 0.05 %ID/g and a tissue uptake at 0.5 h [1, 13] of 1.1 ± 0.2 %ID/g. The tissue uptake at 1 h [1, 13] was 1 ± 1.4 %ID/g, the tissue uptake at 2 h [1, 13] was 0.5 ± 0.4 %ID/g and the tissue uptake at 10 min ([1]; 3.8 MBq/0.3 nmol/200 uL, Uptake, Pancreas) was 3.2 ± 0.3 %ID/g. It also gave a tissue uptake at 10 min [1, 14] of 7.5 ± 2.2 %ID/g, a tissue uptake at 0.5 h [1, 14] of 9.8 ± 2.4 %ID/g and a tissue uptake at 1 h [1, 14] of 9.8 ± 2.3 %ID/g. The tissue uptake at 2 h [1, 14] was 6.8 ± 3.2 %ID/g, the “Blood clearance T1/2” value [2] was 14 ± 1 min and the “Renal clearance T1/2” value [2] was 10 ± 3 min. The “Tumour clearance T1/2” value [2] was 132 ± 54 min, the “Blood clearance T1/2” value [3] was 11 ± 2 min and the “Tumour clearance T1/2” value [3] was 138 ± 66 min. The “Tumour uptake T1/2” value [3] was 7 ± 2 min, the Tumour response ([4]; CA20948 large tumours) was “partial response” and the “Mean time to reach a tumour volume of 2000 mm^3” value (“Mean time” for short) ([4]; CA20948 large tumours (~200 mm^3)) was 77 ± 25 days. The Median survival ([4]; CA20948 large tumours) was 70 days, the “Mean time” value ([4]; CA20948 small tumours (~50 mm^3)) was 76 ± 15 days and the “Animals with stable disease till the end of the study” value ([4]; CA20948 small tumours, after therapy) was “one”. The “Animals with no tumour regrowth” value ([4]; CA20948 small tumours, n = 8 treated) was “one”, the Median survival ([4]; CA20948 small tumours) was > 90 days and the Maximum tolerated activity [5] was < 13.1 ± 1.2 MBq. The “Kidney histology, control vs treated animals” value [6] was “no significant differences were observed”, the Tumour response ([7]; H69 large tumours) was “partial response” and the “Mean time” value ([7]; H69 large tumours (~200 mm^3)) was 110 ± 19 days. The “Effect on tumour volume” value ([7]; H69 large tumours, cumulative injected activity 9.4 ± 0.7 MBq) was “Shrinkage of tumours was observed”, the Median survival ([7]; H69 large tumours) was > 90 days and the “Mean time” value ([7]; H69 small tumours (~50 mm^3)) was 102 ± 19 days. The “Animals with partial response” value [7, 15] was “eight”, the “Animals with stable disease” value [7, 15] was “two” and the “Animals with no tumour regrowth until the end of the study at day 90” value ([7]; H69 small tumours, n = 10 treated) was “two”. The Median survival ([7]; H69 small tumours) was > 90 days.

— publication PMC4720616, “Influence of tumour size on the efficacy of targeted alpha therapy with ^213Bi-[DOTA^0,Tyr^3]-octreotate” (EJNMMI Research, 2016)
